# Laboratory results taken from paper PMC9907207.
# Biological target: D614G VFLIP spike trimer (SARS-CoV-2)
# Assay: cryo-EM structure
substance,measurement,value
D614G VFLIP spike trimer (natural protein),stoichiometry N,3
